From IntAct's records for PubMed 31000591

B1: T-lymphocyte activation antigen CD80 (Mus musculus), Q00609 (parent)
chain: MACNCQLMQDTPLLKFPCPRLILLFVLLIRLSQVSSDVDEQLSKSVKDKVLLPCRYNSPHEDESEDRIYWQKHDKVVLSVIAGKLKVWPEYKNRTLYDNTTYSLIILGLVLSDRGTYSCVVQKKERGTYEVKHLALVKLSIKADFSTPNITESGNPSADTKRITCFASGGFPKPRFSWLENGRELPGINTTISQDPESELYTISSQLDFNTTRNHTIKCLIKYGDAHVSEDFTWEKPPEDPPDSKNTLVLFGAGFGAVITVVVIVVIIKCFCKHRSCFRRNEASRETNNSLTFGPEEALAEQTVFL

Variants of: B1
Conditions: with pd1l1_mouse Cd274, Q9EP73
pd1l1_mouse Cd274, Q9EP73, sequence (Q9EP73 whole entry): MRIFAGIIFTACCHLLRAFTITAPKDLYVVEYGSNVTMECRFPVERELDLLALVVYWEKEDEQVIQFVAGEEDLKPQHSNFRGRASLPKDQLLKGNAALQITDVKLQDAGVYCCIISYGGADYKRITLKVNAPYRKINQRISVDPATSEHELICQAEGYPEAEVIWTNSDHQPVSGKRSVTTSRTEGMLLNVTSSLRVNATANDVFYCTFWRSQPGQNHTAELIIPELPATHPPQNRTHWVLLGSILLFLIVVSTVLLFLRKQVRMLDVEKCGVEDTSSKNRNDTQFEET

Row | Variant | effect of a mutation on the interaction
1 | L107E | disrupting interaction strength
